The text below walks through data of paper PMC10165364, “Pathological variants in TOP3A cause distinct disorders of mitochondrial and nuclear genome stability”.

Holding throughout (details): protein: recombinant; tags: N-terminal TEV-cleavable 6xHis, cleaved; label: 5' 32P; single strand
The target of one series is T1, TOP3A Met575Val (Homo sapiens, UniProt Q13472 16-934, M575V).
T1 sequence: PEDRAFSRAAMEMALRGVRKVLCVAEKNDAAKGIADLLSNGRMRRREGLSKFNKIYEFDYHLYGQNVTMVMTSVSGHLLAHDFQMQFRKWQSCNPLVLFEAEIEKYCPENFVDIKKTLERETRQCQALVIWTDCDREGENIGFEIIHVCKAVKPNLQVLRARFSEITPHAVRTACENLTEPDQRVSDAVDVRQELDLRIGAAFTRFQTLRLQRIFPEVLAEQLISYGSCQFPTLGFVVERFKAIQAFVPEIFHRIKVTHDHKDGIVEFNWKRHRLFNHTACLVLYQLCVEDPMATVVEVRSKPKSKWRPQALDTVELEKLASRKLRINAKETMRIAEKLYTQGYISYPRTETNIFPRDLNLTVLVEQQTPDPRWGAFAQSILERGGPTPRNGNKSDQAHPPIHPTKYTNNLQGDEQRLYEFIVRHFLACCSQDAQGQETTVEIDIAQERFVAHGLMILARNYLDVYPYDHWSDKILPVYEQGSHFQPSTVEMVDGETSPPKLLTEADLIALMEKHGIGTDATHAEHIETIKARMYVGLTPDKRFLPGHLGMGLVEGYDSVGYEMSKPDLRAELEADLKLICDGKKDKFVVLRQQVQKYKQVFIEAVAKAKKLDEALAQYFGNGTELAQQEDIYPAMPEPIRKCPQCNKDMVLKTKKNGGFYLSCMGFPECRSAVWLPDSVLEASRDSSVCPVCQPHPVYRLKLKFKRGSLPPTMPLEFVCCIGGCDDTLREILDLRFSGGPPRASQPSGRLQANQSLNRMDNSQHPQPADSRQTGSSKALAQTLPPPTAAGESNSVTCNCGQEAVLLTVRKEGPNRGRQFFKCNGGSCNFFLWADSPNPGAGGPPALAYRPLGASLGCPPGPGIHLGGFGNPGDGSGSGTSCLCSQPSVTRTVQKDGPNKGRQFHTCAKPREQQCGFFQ
As to the kind of experiment: EMSA; up to 250 fmol protein; 25 mM HEPES pH 7.5, 70 mM NaCl, 100 ug/ml BSA, 1 mM DTT, 10% glycerol; 10 fmol oligo, 0-250 fmol TOP3A in 20 ul; 37 C 15 min, then ice; 8% native PAGE in 0.5x TBE at 4 C. On the technique in general: In EMSA bound probe runs differently from free probe, usually more slowly.

A further series deals with T2, TOP3A Leu37Val (Homo sapiens, UniProt Q13472 16-934, L37V).
T2 sequence: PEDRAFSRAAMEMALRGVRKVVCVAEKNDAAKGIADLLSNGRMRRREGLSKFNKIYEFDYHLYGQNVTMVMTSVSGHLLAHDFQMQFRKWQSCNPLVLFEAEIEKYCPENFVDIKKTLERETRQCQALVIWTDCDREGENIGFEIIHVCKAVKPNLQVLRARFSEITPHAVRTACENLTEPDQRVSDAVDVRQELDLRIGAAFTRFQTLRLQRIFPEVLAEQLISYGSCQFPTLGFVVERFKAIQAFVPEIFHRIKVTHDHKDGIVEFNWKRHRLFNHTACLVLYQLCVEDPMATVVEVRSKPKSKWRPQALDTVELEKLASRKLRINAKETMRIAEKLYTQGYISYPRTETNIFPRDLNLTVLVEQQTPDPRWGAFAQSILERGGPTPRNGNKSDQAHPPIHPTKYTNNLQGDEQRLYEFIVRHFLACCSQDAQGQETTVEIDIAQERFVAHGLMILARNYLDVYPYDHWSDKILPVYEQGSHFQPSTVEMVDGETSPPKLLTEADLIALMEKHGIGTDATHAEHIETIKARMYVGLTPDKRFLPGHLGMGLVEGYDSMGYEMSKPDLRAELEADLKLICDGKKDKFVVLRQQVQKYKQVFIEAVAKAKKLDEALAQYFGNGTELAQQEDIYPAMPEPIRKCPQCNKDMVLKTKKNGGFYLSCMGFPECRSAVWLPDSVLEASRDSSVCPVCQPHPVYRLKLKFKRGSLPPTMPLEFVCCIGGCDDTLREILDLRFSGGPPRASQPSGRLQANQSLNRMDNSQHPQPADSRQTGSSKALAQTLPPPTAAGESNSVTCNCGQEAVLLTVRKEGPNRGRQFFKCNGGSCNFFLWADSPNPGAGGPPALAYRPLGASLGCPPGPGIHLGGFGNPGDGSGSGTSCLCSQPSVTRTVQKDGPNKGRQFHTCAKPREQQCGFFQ
Described as above.

The next series has as its target T3, TOP3A Ser810* (Homo sapiens, UniProt Q13472 16-809).
T3 sequence: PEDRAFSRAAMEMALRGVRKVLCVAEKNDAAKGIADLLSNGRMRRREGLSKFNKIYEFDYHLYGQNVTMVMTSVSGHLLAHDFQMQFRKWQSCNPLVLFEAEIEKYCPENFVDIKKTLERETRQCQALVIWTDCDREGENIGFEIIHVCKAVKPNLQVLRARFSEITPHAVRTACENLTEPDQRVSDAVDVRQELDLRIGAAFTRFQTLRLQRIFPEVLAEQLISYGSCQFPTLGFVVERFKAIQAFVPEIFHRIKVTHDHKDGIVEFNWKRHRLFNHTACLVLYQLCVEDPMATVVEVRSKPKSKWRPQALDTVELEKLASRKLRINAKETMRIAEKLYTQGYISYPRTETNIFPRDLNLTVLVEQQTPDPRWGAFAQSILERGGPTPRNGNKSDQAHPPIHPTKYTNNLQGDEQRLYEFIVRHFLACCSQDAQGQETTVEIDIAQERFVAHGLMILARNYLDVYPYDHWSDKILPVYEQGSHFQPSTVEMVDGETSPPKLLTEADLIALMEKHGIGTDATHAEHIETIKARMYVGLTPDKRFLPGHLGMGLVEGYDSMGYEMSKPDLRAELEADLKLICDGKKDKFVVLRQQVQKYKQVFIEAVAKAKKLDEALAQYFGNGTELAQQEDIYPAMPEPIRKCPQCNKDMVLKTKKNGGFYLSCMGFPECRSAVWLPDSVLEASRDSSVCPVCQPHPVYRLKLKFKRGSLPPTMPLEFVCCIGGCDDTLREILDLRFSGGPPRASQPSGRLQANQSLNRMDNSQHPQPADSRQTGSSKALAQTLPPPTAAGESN
The series is described as follows: EMSA; comparable to WT; 25 mM HEPES pH 7.5, 70 mM NaCl, 100 ug/ml BSA, 1 mM DTT, 10% glycerol; 10 fmol oligo, 0-250 fmol TOP3A in 20 ul; 37 C 15 min, then ice; 8% native PAGE in 0.5x TBE at 4 C.

B1: EMSA substrate 80-mer (ssDNA)
DNA: ACCACATTAACAACATAAAACCCTCATTCACACGAGAAAACACCCTCATGTTCATACACCTATCCCCCATTCTCCTCCTA
On to B1, for which the binding result in the series with TOP3A Met575Val is given as “no binding”; in the series with TOP3A Leu37Val, “no binding”; with TOP3A Ser810* it was “binds”.
